Patent publication US20230050846A1, “TREATMENT OF HEPATIC AND CARDIOVASCULAR DISORDERS” (LIFESEARCH, priority 2019, published 2023)

Target: cell surface F1Fo-ATPase (human)
Assay: cell-based or functional assay

HDL endocytosis by HepG2 cells (HDL-Alexa568 uptake), apoA-I 10 µg/mL, versus non-stimulated cells: 45%
Substance: apoA-I purified from human plasma (from UniProt P02647 25-267) (ligand)
